This is an account of results in patent publication US20210244762A1 (AUTOLUS, published 2021).

For the assay, the target named is T1, Recombinant TGFbRII-Fc protein (R&D systems) (human, UniProt P37173 23-159).
T1 construct: Bought reagent; also called TGFβRII-Fc; TGFβRII-human Fc; not shown: Fc part; human Fc by the names 'TGFβRII-human Fc' / 'TGFbRII-hFc' and the anti-human capture kit; isotype and limits not
In words: SPR (Biacore 8K), TGFbRII-Fc captured by anti-human capture kit on CM5, VHH as analyte, 1:1 Langmuir fit, 25 °C. From the text:
The binding kinetics of these four dAbs for TGFβRII was then investigated using Biacore affinity analysis and the results are shown in Table 3 below.
Recombinant TGFbRII-Fc protein (R&D systems) was immobilised on individual flow cells on a Series S CM5 sensor chip (GE Healthcare) previously functionalised with anti-human capture kit, to a density of 150-200 RU using a Biacore 8K instrument. HBS-P⁺ buffer was used as running buffer is all experimental conditions. Recombinant purified VHH antibodies at known concentrations were used as the ‘analyte’ and injected over the respective flow cells with 150 s contact time and 600s dissociation at […] of flow rate with a constant temperature of 25° C. In each experiment, flow cell 1 was unmodified and used for reference subtraction. A ‘0 concentration’ sensorgram of buffer alone was used as a double reference subtraction to factor for drift. Data were fit to a 1:1 Langmuir binding model using local Rmax.
A general note: Surface plasmon resonance follows binding to a sensor surface in real time, without labels.

A word on the Kd: it is the constant that tells how readily two partners part at equilibrium. One may read the koff as the first-order rate constant of dissociation. As usually defined, the kon is the second-order rate constant of association.

T1 sequence (P37173 23-159 limits assumed): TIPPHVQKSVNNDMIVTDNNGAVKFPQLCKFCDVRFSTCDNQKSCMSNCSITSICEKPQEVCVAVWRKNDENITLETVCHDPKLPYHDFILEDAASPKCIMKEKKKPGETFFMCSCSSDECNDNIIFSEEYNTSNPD

B1: anti-TGFβRII single domain antibody (dAb) clone H3 (VHH)
VHH: QVQLQQSGGGLVQAGGSLRLACAASGRSFSIYGITWFRQAPGKEREFVAAITGSGLTTNYADSVKGRFTISRDNAKNMVYLQLNSLKPDDTAVYYCAATRAYSGYYGENPTRYAYWGQGTQVTVS
notes: H3 is the one clone not 'related' to the other three; also called dAb H3; anti-TGFbRII VHH H3
On to B1, for which the Kd worked out at 67.2 nM, the koff amounted to 0.119 s⁻¹ and the kon came out at 1.77e+06 M⁻¹ s⁻¹.
